From publication doi:10.1101/2021.10.11.463801
Values belong to the binder of their own block, whether it stands above or below them.

Biological target: DLIC1[388-523] (human)
Assay: ITC

- Kd: 1 µM
- stoichiometry N (DLIC1-C molecules per RH1 dimer): 2
B1: JIP3[1-108] (domain or fragment)
chain: MMEIQMDEGGGVVVYQDDYCSGSVMSERVSGLAGSIYREFERLIHCYDEEVVKELMPLVVNVLENLDSVLSENQEHEVELELLREDNEQLLTQYEREKALRRQAEEKF

- Kd: 4 µM
- stoichiometry N (DLIC1-C molecules per RH1 dimer): 2
B2: JIP4[1-103] (domain or fragment)
chain: MELEDGVVYQEEPGGSGAVMSERVSGLAGSIYREFERLIGRYDEEVVKELMPLVVAVLENLDSVFAQDQEHQVELELLRDDNEQLITQYEREKALRKHAEEKF
